Data: the supplement of paper PMC9170038

Test system: MS2 coat protein
Assay: apparent KD of MS2 coat protein; designed switch direction (-1 OFF switch, 1 ON switch): 1; higher = weaker reporter binding
Outline: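 RNA switches sharing common flanks were transcribed by stalled E. coli RNA polymerase on Illumina chips. A doubling series of SNAP-549-labelled MS2 coat protein, from 0.7 or 1.5 nM to 3 µM, was applied in Tris-HCl pH 7.5 buffer with KCl, MgCl2, BSA, DTT, tRNA and Tween-20. Each step lasted 0.8–1.5 h at the bottom of the series and 10–20 min at the top. Normalised cluster fluorescence was curve-fitted, giving apparent KD as the per-design median over clusters.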

[1] = input ligand: microRNA oligo, concentration not stated
[2] = Eterna round: R95, input ligand: microRNA oligo, concentration not stated
[3] = Eterna round: R95, input ligand: FMN 200 uM
[4] = Eterna round: R95, input ligand: none

| Sequence | apparent KD of MS2 coat protein [1] [nM] | apparent KD of MS2 coat protein (input ligand: FMN 200 uM) [nM] | apparent KD of MS2 coat protein (input ligand: none) [nM] | apparent KD of MS2 coat protein [2] [nM] | apparent KD of MS2 coat protein [3] [nM] | apparent KD of MS2 coat protein [4] [nM] |
| --- | --- | --- | --- | --- | --- | --- |
| UAGUGCGUUAGAGGAUAUUCUAAAAUAAAAUAAAAGACAUGAGGAUCACCCAUGUAUGUACAUGGGAAGAAGGCUGAUGUGCUA [Omei SS(NG)2 Bv1] (Eterna round: R96, puzzle: Same State NG 2) | 296 | – | – | – | – | – |
| UAGUUGGUGGUAGGAUAUGUAGGAUAUGGCGAGAGCUAAGCUUGGAAGUCACUUCAGCCAGAAGGACAGAAGGACCAGUAGCUU [pwkr ssNG2 2FMN + F9.10] (Eterna round: R96, puzzle: Same State NG 2) | 24.2 | 105 | 79.1 | – | – | – |
| UAUAUUAUGGUAGGAUAUCUAGGAUAUGGGAAGAGCUAAGCUUGGAAGUCACUUCACCCAGAAGGAGAGAAGGACCAUAAUAUU [pwkr ssNG2 2FMN + F9.5] (Eterna round: R96, puzzle: Same State NG 2) | 240 | 105 | 76.7 | – | – | – |
| UAUCCAUAGAUAGGAUAUUAGUGAACAUGAGGAUCACCCAUGUUUUGCUUGGUUUUAAGUUAAUCUGAGAAGGAUCUUGAUGAA [SameState NG2 #5] (Eterna round: R96, puzzle: Same State NG 2) | 14.6 | 20.3 | 20.4 | – | – | – |
| UAUCUCAUGUAAGGAUAUGCAGCCGUUUCGGCUGCAGAAGGUACUAUAAUACAUGAGGAUCACCCAUGUCUCUAUUAUUUAGUU [JL SSNG1 1.45] (Eterna round: R96, puzzle: Same State NG 1) | 45.7 | 57.6 | 63.8 | – | – | – |
| UAUGAACAUGAGGAUCACCCAUGUGGAAAGGACACAGGAUAUCAUCUCGCACGUGCGAUAUGAGAAGGGUGAUGGU [Quedorinri] (puzzle: Same State 1) | – | – | – | 96.3 | – | – |
| UAUUUAAUCGUAGGAUAUAGAGUGAAAUUUGUACUAGAAGGACGUAACAUGAGGAUCACCCAUGUGGUAAGUGGGACAUAGUAU [JR_SSNG1_Sub037] (Eterna round: R96, puzzle: Same State NG 1) | 27 | 44.1 | 39.7 | – | – | – |
| UCAAGCGUUUGGCUCGUUUUAUGUGUUGAACAUGAGGAUCACCCAUGUAUUGUACGAUCCAGUUAGAUGGUAUUUUG [JR_SHM208A_Sub040] (puzzle: Sensor for hsa-mir-208a) | – | – | – | 104 | 46.9 | 67.6 |
| UCUUAUAAUAAUAUAAUUCAUUUGAUAAAACAUGAGGAUCACCCAUGUCCUACUUUUUUUAAUCAUUUUAACUUUAA [The 7 c's] (puzzle: Sensor for hsa-mir-208a) | – | – | – | 62.6 | 45.3 | 63.5 |
| UCUUGGUUUUUGCUCGUUUUUUGUGUUGAACAUGAGGAUCACCCAUGUAUUAUACGGUCCGGUUUAAUAAUAAUCCG [JMF 81] (puzzle: Sensor for hsa-mir-208a) | – | – | – | 14.6 | 24.2 | 27.3 |
| UCUUGGUUUUUGCUCGUUUUUUGUGUUGAACAUGAGGAUCACCCAUGUAUUAUACGGUCCGGUUUAGUAGUGGUCCG [JMF 79] (puzzle: Sensor for hsa-mir-208a) | – | – | – | 16 | 28.2 | 31.1 |
| UCUUGGUUUUUGCUCGUUUUUUGUGUUGAACAUGAGGAUCACCCAUGUAUUGUACAGUCCAGUUUAAUAAUGGUCCG [JMF 55] (puzzle: Sensor for hsa-mir-208a) | – | – | – | 25.6 | 36.9 | 38.1 |
| UCUUGGUUUUUGCUCGUUUUUUGUGUUGAACAUGAGGAUCACCCAUGUAUUGUACGGUCCAAUUUAAUAAUAGUCCG [JMF 65] (puzzle: Sensor for hsa-mir-208a) | – | – | – | 19.7 | 26.6 | 32.4 |
| UCUUGGUUUUUGCUCGUUUUUUGUGUUGAACAUGAGGAUCACCCAUGUAUUGUACGGUCCAGUUUGAUAAUGGUCCG [JMF 34] (Eterna round: R96, puzzle: Sensor for hsa-mir-208a) | 13.3 | 35.2 | 40.2 | – | – | – |
| UCUUGGUUUUUGCUCGUUUUUUGUGUUGAACAUGAGGAUCACCCAUGUAUUGUACGGUCCAGUUUGAUAAUGGUCCG [JMF 34] (puzzle: Sensor for hsa-mir-208a) | – | – | – | 14.3 | 25.6 | 27.3 |
| UCUUGGUUUUUGCUCGUUUUUUGUGUUGAACAUGAGGAUCACCCAUGUAUUGUACGGUCCGGUUUGAUAAUGGUCCG [JMF 13] (puzzle: Sensor for hsa-mir-208a) | – | – | – | 15.5 | 26 | 27.1 |
| UCUUGGUUUUUGCUCGUUUUUUGUGUUGAACAUGAGGAUCACCCAUGUAUUGUACGGUCCGGUUUGAUAGUGGUCCA [JMF 45] (puzzle: Sensor for hsa-mir-208a) | – | – | – | 71.6 | 111 | 120 |
| UGAACCUUCACAGGAUAUCAUGCGAAAAUUGCGUGAGAAGGGUGGAUGUGGUGUUCAAAGAUGCACAUGAGGAUCACCCAUGUA [SameState NG1 #48] (Eterna round: R96, puzzle: Same State NG 1) | 166 | 106 | 203 | – | – | – |
| UGAAUAUCUACAGGAUAUGAGUUGUAUAGUGGAUCAGAAGGGUGGGUGUUUUGCACGGUGUGUUACAUGAGGAUCACCCAUGUU [SameState NG1 #25] (Eterna round: R96, puzzle: Same State NG 1) | 139 | 302 | 324 | – | – | – |
| UGCAUACGCCUACAAGAGGAGUCCUGCAGACAUGAGGAUCACCCAUGUAACUCGAAUUCAGUUCGUUCGUCUGUCGU [JR_hsamir208a_Sub1412] (Eterna round: R96, puzzle: Sensor for hsa-mir-208a) | 33.9 | 57 | 52.9 | – | – | – |
| UGCCUGAGUCGAGGAUAUUAUGGAUCAAUUAAUACAUGAGGAUCACCCAUGUAAUUAAUUUAACAUGAGAAGGCGACUCAGGCU [SSNG2/10-A3] (Eterna round: R96, puzzle: Same State NG 2) | 7.93 | – | – | – | – | – |
| UGGAUCUAGGCUUGCCUGGGUCCAUGCUGACAUGAGGAUCACCCAUGUGCAUCCUACAAGCUUUUUGCUUGUCAGUU (Eterna round: R96, puzzle: Sensor for hsa-mir-208a) | 330 | 575 | 289 | – | – | – |
| UGGAUCUAGGCUUGCCUGGGUCCAUGCUGACAUGAGGAUCACCCAUGUGCAUCCUACAAGCUUUUUGCUUGUCAGUU (puzzle: Sensor for hsa-mir-208a) | – | – | – | 166 | 232 | 135 |
| UGGCUCAGACGAGGAUAUAUGUGGUCACAUGAGGAUCACCCAUGUCUCGAGCUUCGGCUCGAGGCAUAGAAGGCGUCUGAGCCA [SSNG2/5-A2] (Eterna round: R96, puzzle: Same State NG 2) | 50.8 | 1300 | 632 | – | – | – |
| UGGCUGGUGCUAGGAUAUGCAUGAGGCCUCCUCGUAGAAGGAGCACGACAUGAGGAUCACCCAUGUGGCCGUCCGUGGGCGGCU [salish99_SSNG1_r04_015] (Eterna round: R96, puzzle: Same State NG 1) | 44.8 | 68 | 60.1 | – | – | – |
| UGGUAACAUGAGGAUCACCCAUGUCAAAUGAAUCGAGGAUAUGGGAAGGAAGAAGAGAAACUAGAAGGCGAAGUUG [Altered State 1-5 - Jieux - Same State 1] (puzzle: Same State 1) | – | – | – | 101 | 89 | 127 |
| UGGUACAUGGGAGGAUAUCAUGCAGACAUGAGGAUCACCCAUGUAGCCAUGGAGACAUGGGUAUAUGAGAAGGCCCAUGUACCU [JL SSNG1 3.53] (Eterna round: R96, puzzle: Same State NG 2) | 37.7 | 145 | 207 | – | – | – |
| UGGUACAUGGGAGGAUAUCAUGUAGAAACAUGAGGAUCACCCAUGUAGAUGGCCGGUAACCGGAAUGAGAAGGCCCAUGUACCU [JL SSNG1 3.63] (Eterna round: R96, puzzle: Same State NG 2) | 18.9 | 22.7 | 30.6 | – | – | – |
